Patent publication US20100330078A1 (Pfizer, published 2010)
Where a chain is given by its changes, count along the chain named. In names and notes the source's numbering stands.

Assays:
[1] = target: T1, Murine FcγRIII (murine, UniProt P08508 31-215, limits assumed); assay: Biacore
T1 construct: Construct not described; also called mFcγRIII
T1 sequence (looked up): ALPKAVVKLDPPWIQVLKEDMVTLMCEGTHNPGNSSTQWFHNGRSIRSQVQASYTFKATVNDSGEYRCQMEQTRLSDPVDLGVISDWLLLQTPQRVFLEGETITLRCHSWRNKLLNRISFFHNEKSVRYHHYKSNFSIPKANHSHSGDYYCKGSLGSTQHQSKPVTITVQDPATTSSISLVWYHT
Description: (§1) The ability of 22B5/DLE, which contains the IgG1 DLE triple mutations (as discussed previously in Example 2), to enhance binding to the FcγRs was evaluated in a Biacore binding experiment. The FcγR binding affinities of 22B5/DLE were compared with the binding affinity of wild type (wt) IgG1. […] The binding affinity comparison of 22B5/DLE and wild type IgG1 was also evaluated against the murine Fcγ receptors. The greatest enhancement in binding was to the mFcγRIV, followed by mFcγRI, and mFcγRIII (see FIG. 5).

[2] = target: T2, Murine FcγRIV (murine, UniProt A0A0B4J1G0 21-203); assay: Biacore
T2 construct: Construct not described; also called mFcγRIV
T2 sequence: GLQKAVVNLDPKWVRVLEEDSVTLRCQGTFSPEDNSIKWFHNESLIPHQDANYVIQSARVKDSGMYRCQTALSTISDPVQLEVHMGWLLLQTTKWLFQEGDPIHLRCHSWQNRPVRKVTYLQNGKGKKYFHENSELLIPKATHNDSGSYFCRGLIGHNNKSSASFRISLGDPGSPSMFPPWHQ
Description: as §1

[3] = target: T3, Human FcγRI (human, UniProt P12314 16-288, limits assumed); assay: Biacore
T3 construct: Construct used in Biacore is not described
Description: as §1

[4] = target: T4, Human FcγRIIa/131H (human, UniProt P12318 36-218, limits assumed); assay: Biacore
T4 construct: Polymorphic variant 131H; construct not described
T4 sequence (looked up): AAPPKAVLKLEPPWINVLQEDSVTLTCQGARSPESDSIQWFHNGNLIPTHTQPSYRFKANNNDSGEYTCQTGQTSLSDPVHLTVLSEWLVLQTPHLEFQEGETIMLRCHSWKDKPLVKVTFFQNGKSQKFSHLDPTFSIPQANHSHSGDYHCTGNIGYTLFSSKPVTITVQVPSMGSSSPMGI
Description: as §1

[5] = target: T5, Human FcγRIIa/131R (human, UniProt P12318 36-218, limits assumed); assay: Biacore
T5 construct: Polymorphic variant 131R; construct not described
T5 sequence (looked up): T4 sequence (looked up) with H132R
Description: as §1

[6] = target: T6, Human FcγRIIIa/158V (human, UniProt P08637 17-208, limits assumed); assay: Biacore
T6 construct: also called Human FcγRIII/158V
Description: as §1

[7] = target: T7, Murine FcγRI (murine, UniProt P26151 25-297, limits assumed); assay: Biacore
T7 construct: Construct not described; also called mFcγRI
T7 sequence (looked up): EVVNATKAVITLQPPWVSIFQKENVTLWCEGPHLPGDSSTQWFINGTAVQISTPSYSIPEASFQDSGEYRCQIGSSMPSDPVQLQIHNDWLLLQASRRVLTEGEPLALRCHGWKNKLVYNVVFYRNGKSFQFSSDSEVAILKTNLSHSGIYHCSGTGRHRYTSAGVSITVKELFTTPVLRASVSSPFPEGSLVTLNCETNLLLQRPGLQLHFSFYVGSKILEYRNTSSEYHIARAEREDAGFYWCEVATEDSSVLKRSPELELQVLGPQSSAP
Description: as §1

[8] = target: human integrin α5β1 on cells (endogenous, HUVEC; tumor or endothelial-expressed) (human, UniProt P08648 42-1049; P05556 21-798); assay: cell-based or functional assay
[9] = target: T1, Murine FcγRIII; assay: Biacore, KD against 22B5 wild type IgG1
Description: as §1

[10] = target: T2, Murine FcγRIV; assay: Biacore, KD against 22B5 wild type IgG1
Description: as §1

[11] = target: T3, Human FcγRI; assay: Biacore, KD against 22B5 wild type IgG1
Description: as §1

[12] = target: T4, Human FcγRIIa/131H; assay: Biacore, KD against 22B5 wild type IgG1
Description: as §1

[13] = target: T5, Human FcγRIIa/131R; assay: Biacore, KD against 22B5 wild type IgG1
Description: as §1

[14] = target: T8, Human FcγRIIIa/158F (human, UniProt P08637 17-208, limits assumed); assay: Biacore, KD against 22B5 wild type IgG1
T8 construct: also called Human FcγRIII/158F
Description: as §1

[15] = target: T6, Human FcγRIIIa/158V; assay: Biacore, KD against 22B5 wild type IgG1
Description: as §1

[16] = target: T7, Murine FcγRI; assay: Biacore, KD against 22B5 wild type IgG1
Description: as §1

[17] = target: T9, human recombinant α5β1 extracellular domain (human, UniProt P08648 42-995; P05556 21-728); assay: Biacore, antibody immobilised, α5β1 extracellular domain flowed, 25.0 C, 4.0 mM CaCl2
T9 construct: extracellular domain; also called α5β1 recombinant extracellular domain; extracellular domain of α5β1
Description: Binding kinetics and nominal avidity of 22B5/DLE to the extracellular domain of α5β1 was determined using Biacore analysis (Biacore AB, Uppsala, Sweden). To perform BIAcore kinetic analyses, the 22B5/DLE antibody was immobilized on a biosensor chip and various concentrations of human recombinant α5β1 extracellular domain were flowed across the surface at 25.0° C. (see FIG. 3). The binding data were fit globally to a simple one-to-one binding model with drifting baseline. 22B5/DLE binds reversibly to α5β1. […] The KD was greater when measured in the absence of divalent cations, consistent with cation-dependent activation of integrin.

T9 sequence (P08648 42-995, chain 1 of 2): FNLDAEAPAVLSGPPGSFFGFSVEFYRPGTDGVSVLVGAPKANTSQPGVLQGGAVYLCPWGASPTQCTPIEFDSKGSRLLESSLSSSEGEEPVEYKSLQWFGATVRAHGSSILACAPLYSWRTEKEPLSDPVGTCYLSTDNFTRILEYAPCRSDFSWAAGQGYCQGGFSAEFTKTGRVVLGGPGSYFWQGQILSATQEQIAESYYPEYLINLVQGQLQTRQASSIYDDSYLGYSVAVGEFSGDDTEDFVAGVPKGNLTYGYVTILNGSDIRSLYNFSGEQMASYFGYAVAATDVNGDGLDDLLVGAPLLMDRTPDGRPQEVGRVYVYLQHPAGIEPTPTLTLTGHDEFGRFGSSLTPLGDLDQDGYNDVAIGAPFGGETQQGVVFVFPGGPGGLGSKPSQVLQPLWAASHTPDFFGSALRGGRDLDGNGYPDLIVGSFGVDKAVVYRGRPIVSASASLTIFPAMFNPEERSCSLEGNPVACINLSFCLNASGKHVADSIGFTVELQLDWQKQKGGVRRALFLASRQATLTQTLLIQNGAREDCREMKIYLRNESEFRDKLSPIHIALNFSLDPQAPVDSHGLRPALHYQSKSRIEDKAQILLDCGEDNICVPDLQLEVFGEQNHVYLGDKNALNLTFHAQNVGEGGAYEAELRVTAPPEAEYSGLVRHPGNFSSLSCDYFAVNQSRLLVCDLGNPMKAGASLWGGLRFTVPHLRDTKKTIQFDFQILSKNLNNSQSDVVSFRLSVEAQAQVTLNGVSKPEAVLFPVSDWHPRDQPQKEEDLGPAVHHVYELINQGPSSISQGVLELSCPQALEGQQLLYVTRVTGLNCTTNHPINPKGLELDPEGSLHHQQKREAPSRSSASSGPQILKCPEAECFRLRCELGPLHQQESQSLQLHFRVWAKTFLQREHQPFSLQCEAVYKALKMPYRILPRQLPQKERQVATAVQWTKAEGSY
T9 sequence (P05556 21-728, chain 2 of 2): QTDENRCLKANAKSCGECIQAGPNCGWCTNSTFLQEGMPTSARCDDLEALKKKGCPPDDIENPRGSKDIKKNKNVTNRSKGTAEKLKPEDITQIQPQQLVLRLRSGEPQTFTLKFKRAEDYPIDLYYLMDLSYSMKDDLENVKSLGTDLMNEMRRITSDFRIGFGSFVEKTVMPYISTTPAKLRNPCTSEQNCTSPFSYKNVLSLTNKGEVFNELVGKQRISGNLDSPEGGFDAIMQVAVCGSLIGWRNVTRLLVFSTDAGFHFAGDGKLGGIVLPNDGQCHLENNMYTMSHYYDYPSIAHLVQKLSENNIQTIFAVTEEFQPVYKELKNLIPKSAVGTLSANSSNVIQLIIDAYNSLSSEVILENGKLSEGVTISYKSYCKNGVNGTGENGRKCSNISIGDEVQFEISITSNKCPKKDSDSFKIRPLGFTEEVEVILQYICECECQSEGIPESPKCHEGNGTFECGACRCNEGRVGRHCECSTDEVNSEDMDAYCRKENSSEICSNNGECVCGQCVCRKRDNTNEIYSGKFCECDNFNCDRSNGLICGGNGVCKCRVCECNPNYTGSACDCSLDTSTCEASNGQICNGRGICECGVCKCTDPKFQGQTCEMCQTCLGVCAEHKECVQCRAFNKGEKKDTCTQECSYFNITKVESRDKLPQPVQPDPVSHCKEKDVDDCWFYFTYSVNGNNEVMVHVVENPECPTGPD
T6 sequence (P08637 17-208 F176V limits assumed): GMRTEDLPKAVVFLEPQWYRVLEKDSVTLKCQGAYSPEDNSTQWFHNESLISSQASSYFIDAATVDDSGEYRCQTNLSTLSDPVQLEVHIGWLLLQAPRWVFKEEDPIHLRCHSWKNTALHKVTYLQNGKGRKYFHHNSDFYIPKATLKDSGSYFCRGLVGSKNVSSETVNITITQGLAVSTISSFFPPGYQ
T3 sequence (P12314 16-288 limits assumed): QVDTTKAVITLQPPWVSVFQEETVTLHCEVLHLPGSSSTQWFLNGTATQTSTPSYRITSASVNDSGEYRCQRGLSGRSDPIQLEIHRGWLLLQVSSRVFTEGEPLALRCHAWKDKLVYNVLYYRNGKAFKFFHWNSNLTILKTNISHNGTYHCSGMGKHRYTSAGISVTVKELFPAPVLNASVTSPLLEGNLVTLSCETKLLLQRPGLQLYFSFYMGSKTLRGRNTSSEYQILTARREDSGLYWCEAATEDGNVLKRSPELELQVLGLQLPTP
T8 sequence (P08637 17-208 limits assumed): as the sequence (P08637 17-208 F176V limits assumed) above, with V160F counted along it
human integrin α5β1 on cells (endogenous, HUVEC; tumor or endothelial-expressed), sequence (P08648 42-1049, chain 1 of 2): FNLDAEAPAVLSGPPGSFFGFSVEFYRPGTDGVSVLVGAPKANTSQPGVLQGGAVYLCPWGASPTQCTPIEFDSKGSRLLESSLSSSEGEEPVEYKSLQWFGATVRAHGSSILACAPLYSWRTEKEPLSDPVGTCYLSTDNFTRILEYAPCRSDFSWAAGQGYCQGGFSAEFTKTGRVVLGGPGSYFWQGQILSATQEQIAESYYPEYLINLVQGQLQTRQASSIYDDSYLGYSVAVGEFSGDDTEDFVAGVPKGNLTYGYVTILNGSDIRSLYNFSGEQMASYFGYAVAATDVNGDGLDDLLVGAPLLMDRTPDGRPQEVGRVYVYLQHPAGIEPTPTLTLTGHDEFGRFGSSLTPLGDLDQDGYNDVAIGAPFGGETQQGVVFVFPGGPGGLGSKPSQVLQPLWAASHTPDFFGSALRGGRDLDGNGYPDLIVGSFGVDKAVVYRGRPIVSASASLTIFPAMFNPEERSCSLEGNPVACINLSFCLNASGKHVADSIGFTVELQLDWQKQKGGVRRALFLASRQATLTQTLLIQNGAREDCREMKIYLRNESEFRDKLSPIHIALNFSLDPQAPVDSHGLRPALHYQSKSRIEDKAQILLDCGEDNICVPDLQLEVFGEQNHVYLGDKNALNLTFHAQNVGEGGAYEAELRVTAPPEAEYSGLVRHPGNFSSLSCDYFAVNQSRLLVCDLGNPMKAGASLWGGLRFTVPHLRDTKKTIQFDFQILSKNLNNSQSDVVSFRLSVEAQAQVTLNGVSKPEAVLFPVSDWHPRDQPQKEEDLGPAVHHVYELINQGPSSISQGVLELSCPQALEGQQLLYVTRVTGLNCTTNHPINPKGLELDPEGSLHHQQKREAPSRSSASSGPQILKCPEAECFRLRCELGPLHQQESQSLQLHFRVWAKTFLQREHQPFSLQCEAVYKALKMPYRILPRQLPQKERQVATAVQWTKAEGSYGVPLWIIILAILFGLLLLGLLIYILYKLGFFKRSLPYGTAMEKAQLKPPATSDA
human integrin α5β1 on cells (endogenous, HUVEC; tumor or endothelial-expressed), sequence (P05556 21-798, chain 2 of 2): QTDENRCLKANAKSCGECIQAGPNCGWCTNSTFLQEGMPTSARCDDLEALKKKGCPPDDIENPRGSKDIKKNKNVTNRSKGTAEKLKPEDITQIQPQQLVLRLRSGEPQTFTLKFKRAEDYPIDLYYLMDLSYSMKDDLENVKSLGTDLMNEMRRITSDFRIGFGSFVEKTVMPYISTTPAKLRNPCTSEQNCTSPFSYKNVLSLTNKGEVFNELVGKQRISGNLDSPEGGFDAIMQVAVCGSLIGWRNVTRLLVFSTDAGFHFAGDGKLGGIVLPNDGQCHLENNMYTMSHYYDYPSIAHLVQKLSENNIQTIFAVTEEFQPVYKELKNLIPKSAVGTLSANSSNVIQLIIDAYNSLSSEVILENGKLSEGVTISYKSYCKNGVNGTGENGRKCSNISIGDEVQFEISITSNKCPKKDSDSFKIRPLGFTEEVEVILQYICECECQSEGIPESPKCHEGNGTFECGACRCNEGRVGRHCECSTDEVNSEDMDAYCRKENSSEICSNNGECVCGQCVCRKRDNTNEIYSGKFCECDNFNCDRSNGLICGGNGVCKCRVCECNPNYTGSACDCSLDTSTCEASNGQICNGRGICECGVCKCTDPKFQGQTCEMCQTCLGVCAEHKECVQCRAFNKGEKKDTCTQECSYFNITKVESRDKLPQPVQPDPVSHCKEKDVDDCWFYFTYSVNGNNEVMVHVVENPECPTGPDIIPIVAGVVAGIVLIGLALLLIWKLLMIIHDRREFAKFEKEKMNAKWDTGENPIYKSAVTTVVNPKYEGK

Kd [1]: 1700 nM
Kd [2]: 9.1 nM
Kd [3]: 5.8 nM
Kd [4]: 1000 nM
Kd [5]: 650 nM
Kd [6]: 9.4 nM
Kd [7]: 96 nM
ADCC EC50 (up to 80% target cell lysis), human PBMCs [8]: 0.04 nM
Fold enhancement over wt IgG1 [9]: 5 fold
Fold enhancement over wt IgG1 [10]: 260 fold
Fold enhancement over wt IgG1 [11]: 6 fold
Fold enhancement over wt IgG1 [12]: 1.6 fold
Fold enhancement over wt IgG1 [13]: 2.3 fold
Fold enhancement over wt IgG1 [14]: 122 fold
Fold enhancement over wt IgG1 [15]: 70 fold
Fold enhancement over wt IgG1 [16]: 14 fold
Kd [17]: 2.7 nM
koff [17]: 0.0012 s⁻¹
kon [17]: 450000 M⁻¹ s⁻¹
B1: 22B5/DLE (antibody, human IgG1, kappa)
heavy: QLQLQESGPGLVKPSETLSLTCTVSGGSISSSSYWGWIRQPPGKGLEWIGSIYYSGRNYNNPSLKSRVTISVDTSKNQFSLKLSSVTAADTAVYYCARHYYGSGSSYYYYDLDVWGQGTTVTVSSASTKGPSVFPLAPSSKSTSGGTAALGCLVKDYFPEPVTVSWNSGALTSGVHTFPAVLQSSGLYSLSSVVTVPSSSLGTQTYICNVNHKPSNTKVDKKVEPKSCDKTHTCPPCPAPELLGGPDVFLFPPKPKDTLMISRTPEVTCVVVDVSHEDPEVKFNWYVDGVEVHNAKTKPREEQYNSTYRVVSVLTVLHQDWLNGKEYKCKVSNKALPLPEEKTISKAKGQPREPQVYTLPPSREEMTKNQVSLTCLVKGFYPSDIAVEWESNGQPENNYKTTPPVLDSDGSFFLYSKLTVDKSRWQQGNVFSCSVMHEALHNHYTQKSLSLSPGK
light: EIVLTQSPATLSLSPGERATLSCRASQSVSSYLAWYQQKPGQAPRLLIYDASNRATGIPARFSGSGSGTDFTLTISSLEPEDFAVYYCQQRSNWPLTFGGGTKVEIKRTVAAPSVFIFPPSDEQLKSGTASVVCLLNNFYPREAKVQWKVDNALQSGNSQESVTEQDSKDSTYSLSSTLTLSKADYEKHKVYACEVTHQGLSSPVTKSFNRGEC
notes: Human IgG1 with Fc mutations S247D, A338L, I340E; the VH already holds the germline back-mutations I30S and N33S; also called 22B5 IgG1 DLE; 22B5 G1 DLE
